± gives the standard deviation of the averaged measurements.
B1: library; a variant is named by its letters at X, in order (parent)
chain: MNIQIGELAKRTACPVVTIRFYEQEGLLPPPGRSRGNFRLYGEEHVERLQFIRHCRSLDMPLSXVRTLLSYRKRPDQDCGEVXMLLDEHXRQVESRIGALLELXHXLVELREACSGARPAQSCGILQGLSDCVCDTRGTTAHXSD

How the values were obtained:
[1] = variants of: B1; assay: sfGFP reporter fluorescence (15 h) (µM FITC); higher = higher leak; settings: library round: Round 3b; ligand: none
Procedure: (§1)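 Cell-free biosensing: 1 µL Echo-assembled CFE reactions with linear PbrR variant templates (5 nM) and pPbrR-sfGFP reporter, with 1 µM Pb, 30 µM Zn or no ligand; endpoint sfGFP fluorescence after 15 h at 30 °C calibrated as µM FITC. Round 3b rational combinatorial PbrR mutants; 3 biological replicates.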

[2] = variants of: B1; assay: sfGFP reporter fluorescence (15 h) (µM FITC); higher = stronger transcriptional activation; settings: library round: Round 3b
Procedure: as §1

| Variant | sfGFP reporter fluorescence [1] | sfGFP reporter fluorescence ([2]; ligand: 1 µM Pb) | sfGFP reporter fluorescence ([2]; ligand: 30 µM Zn) |
| --- | --- | --- | --- |
| DIIVAT | 0.0468 ± 0.0037 | 0.131 ± 0.0097 | 0.0469 ± 0.005 |
| KFIVHT | 0.0536 ± 0.0065 | 0.7 ± 0.038 | 0.365 ± 0.038 |
| KIAKAP | 0.0576 ± 0.0074 | 0.674 ± 0.062 | 0.0578 ± 0.0037 |
| KIAKAT | 0.0563 ± 0.006 | 0.675 ± 0.061 | 0.0628 ± 0.0018 |
| KIAKAR | 0.0603 ± 0.0029 | 0.794 ± 0.049 | 0.0642 ± 0.0027 |
| DNATET | 0.0419 ± 0.00051 | 0.0463 ± 0.0026 | 0.0623 ± 0.0031 |
| DNATER | 0.0446 ± 0.0017 | 0.0458 ± 0.0017 | 0.0522 ± 0.0022 |
| KIIKAT | 0.0413 ± 0.0042 | 0.17 ± 0.027 | 0.0483 ± 0.0033 |
| KIITEP | 0.0456 ± 0.0027 | 0.301 ± 0.011 | 0.0508 ± 0.0019 |
| KIITET | 0.0468 ± 0.0019 | 0.265 ± 0.01 | 0.0513 ± 0.0034 |
| KIITER | 0.0454 ± 0.0026 | 0.266 ± 0.0032 | 0.0497 ± 0.0018 |
| DNAVAR | 0.0458 ± 0.0027 | 0.0485 ± 0.0025 | 0.0579 ± 0.0046 |
| DNAVAT | 0.0419 ± 0.0015 | 0.0454 ± 0.0015 | 0.0637 ± 0.0046 |
| KIAVER | 0.0626 ± 0.0036 | 0.946 ± 0.087 | 0.0548 ± 0.002 |
| KIAVET | 0.0672 ± 0.0059 | 1.21 ± 0.013 | 0.0607 ± 0.0027 |
| KIAVEP | 0.0654 ± 0.0022 | 0.997 ± 0.055 | 0.0578 ± 0.0022 |
| KNAVET | 0.0522 ± 0.0014 | 0.261 ± 0.01 | 0.223 ± 0.016 |
| KNAVEP | 0.0529 ± 0.0031 | 0.235 ± 0.021 | 0.211 ± 0.024 |
| KNAVER | 0.0532 ± 0.0015 | 0.334 ± 0.025 | 0.313 ± 0.04 |
| DIAVET | 0.0432 ± 0.0019 | 0.07 ± 0.0044 | 0.0437 ± 0.002 |
| DIAVEP | 0.0409 ± 0.0007 | 0.0827 ± 0.0059 | 0.04514 ± 0.00039 |
| DIAVER | 0.0436 ± 0.004 | 0.0866 ± 0.0039 | 0.0484 ± 0.0041 |

| Variant | sfGFP reporter fluorescence [1] | sfGFP reporter fluorescence ([2]; ligand: 1 µM Pb) | sfGFP reporter fluorescence ([2]; ligand: 30 µM Zn) |
| --- | --- | --- | --- |
| DIATAT | 0.0409 ± 0.0016 | 0.112 ± 0.0062 | 0.0458 ± 0.00085 |
| DIATAR | 0.0427 ± 0.0029 | 0.0781 ± 0.014 | 0.0423 ± 0.0034 |
| DIATAP | 0.0413 ± 0.0051 | 0.087 ± 0.01 | 0.0433 ± 0.0057 |
| KNATAR | 0.0517 ± 0.005 | 0.302 ± 0.012 | 0.406 ± 0.066 |
| KNATAP | 0.052 ± 0.0055 | 0.226 ± 0.015 | 0.311 ± 0.038 |
| KNATAT | 0.0532 ± 0.0029 | 0.305 ± 0.021 | 0.514 ± 0.057 |
| KFIVET | 0.0511 ± 0.0019 | 0.453 ± 0.057 | 0.094 ± 0.006 |
| KFIVEP | 0.0475 ± 0.004 | 0.567 ± 0.017 | 0.107 ± 0.013 |
| KFIVER | 0.0558 ± 0.0015 | 0.491 ± 0.0094 | 0.0916 ± 0.0098 |
| DFIVAT | 0.0456 ± 0.0052 | 0.0992 ± 0.004 | 0.0496 ± 0.0011 |
| KIIKET | 0.0423 ± 0.0019 | 0.128 ± 0.0066 | 0.0466 ± 0.001 |
| KIIKER | 0.0441 ± 0.0037 | 0.149 ± 0.017 | 0.0485 ± 0.0035 |
| KNATHR | 0.0571 ± 0.0019 | 0.412 ± 0.041 | 0.602 ± 0.08 |
| KNATHT | 0.0681 ± 0.0016 | 0.443 ± 0.015 | 0.764 ± 0.13 |
| DIATER | 0.0429 ± 0.0012 | 0.0627 ± 0.0026 | 0.0413 ± 0.00067 |
| DIATET | 0.0419 ± 0.0022 | 0.0628 ± 0.00089 | 0.0452 ± 0.0012 |
| DIATEP | 0.046 ± 0.0012 | 0.0616 ± 0.0042 | 0.0456 ± 0.0029 |
| KNATER | 0.0529 ± 0.0011 | 0.343 ± 0.014 | 0.336 ± 0.035 |
| KNATEP | 0.0501 ± 0.0039 | 0.279 ± 0.052 | 0.261 ± 0.015 |
| KNATET | 0.055 ± 0.0007 | 0.324 ± 0.017 | 0.34 ± 0.031 |
| KFITHR | 0.0496 ± 0.0019 | 0.554 ± 0.021 | 0.25 ± 0.036 |
| KFITHT | 0.0512 ± 0.0076 | 0.492 ± 0.046 | 0.21 ± 0.024 |

| Variant | sfGFP reporter fluorescence [1] | sfGFP reporter fluorescence ([2]; ligand: 1 µM Pb) | sfGFP reporter fluorescence ([2]; ligand: 30 µM Zn) |
| --- | --- | --- | --- |
| KIAVHR | 0.0703 ± 0.001 | 1.42 ± 0.17 | 0.0998 ± 0.0092 |
| KIAVHP | 0.0656 ± 0.0055 | 1.12 ± 0.13 | 0.0894 ± 0.011 |
| KIAVHT | 0.0616 ± 0.0046 | 0.924 ± 0.066 | 0.0797 ± 0.0069 |
| KIITAP | 0.0473 ± 0.0044 | 0.308 ± 0.022 | 0.051 ± 0.005 |
| KIITAT | 0.0466 ± 0.0011 | 0.39 ± 0.032 | 0.05466 ± 0.00019 |
| DIAVHT | 0.0457 ± 0.0036 | 0.102 ± 0.0083 | 0.0483 ± 0.0036 |
| DIAVHR | 0.0454 ± 0.0066 | 0.104 ± 0.0012 | 0.0493 ± 0.0043 |
| KIATAR | 0.069 ± 0.0014 | 1.49 ± 0.15 | 0.0681 ± 0.0007 |
| KIATAP | 0.0703 ± 0.0043 | 1.26 ± 0.096 | 0.0679 ± 0.006 |
| KIATAT | 0.0691 ± 0.0019 | 1.29 ± 0.062 | 0.0697 ± 0.0016 |
| KIITHT | 0.0492 ± 0.0029 | 0.471 ± 0.031 | 0.0728 ± 0.0057 |
| KIITHR | 0.0506 ± 0.0028 | 0.485 ± 0.067 | 0.0734 ± 0.0022 |
| DIITAR | 0.0463 ± 0.0055 | 0.0691 ± 0.0046 | 0.0465 ± 0.0022 |
| DIITAT | 0.0431 ± 0.0041 | 0.0634 ± 0.005 | 0.0426 ± 0.0034 |
| KNAKER | 0.0626 ± 0.0049 | 0.296 ± 0.036 | 0.621 ± 0.066 |
| KNAKET | 0.0595 ± 0.0029 | 0.248 ± 0.0068 | 0.569 ± 0.068 |
| DIAKET | 0.0419 ± 0.00078 | 0.0472 ± 0.0015 | 0.0466 ± 0.0026 |
| DIAKER | 0.0433 ± 0.0047 | 0.0512 ± 0.0021 | 0.0452 ± 0.0035 |
| DIITET | 0.0436 ± 0.0034 | 0.0535 ± 0.002 | 0.047 ± 0.0035 |
| DIITER | 0.0474 ± 0.0038 | 0.0576 ± 0.0022 | 0.0446 ± 0.0022 |
| KFITEP | 0.0482 ± 0.0055 | 0.36 ± 0.014 | 0.0694 ± 0.0043 |
| KFITER | 0.0486 ± 0.00051 | 0.435 ± 0.016 | 0.0763 ± 0.005 |

| Variant | sfGFP reporter fluorescence [1] | sfGFP reporter fluorescence ([2]; ligand: 1 µM Pb) | sfGFP reporter fluorescence ([2]; ligand: 30 µM Zn) |
| --- | --- | --- | --- |
| KFITET | 0.0451 ± 0.0028 | 0.3727 ± 0.0019 | 0.0737 ± 0.0037 |
| DFIVET | 0.0435 ± 0.0054 | 0.0785 ± 0.0019 | 0.0449 ± 0.0017 |
| DFIVER | 0.0476 ± 0.0017 | 0.0836 ± 0.0022 | 0.0461 ± 0.001 |
| DNIKHP | 0.043 ± 0.0052 | 0.0535 ± 0.0032 | 0.281 ± 0.018 |
| KNAVAP | 0.0482 ± 0.0035 | 0.142 ± 0.0073 | 0.214 ± 0.025 |
| KNAVAR | 0.0498 ± 0.001 | 0.195 ± 0.018 | 0.309 ± 0.028 |
| KNAVAT | 0.045 ± 0.0035 | 0.155 ± 0.0086 | 0.237 ± 0.018 |
| KNIVET | 0.112 ± 0.0075 | 0.514 ± 0.055 | 1.2 ± 0.06 |
| KNIVER | 0.115 ± 0.006 | 0.585 ± 0.046 | 1.4 ± 0.2 |
| DFITAR | 0.0422 ± 0.0057 | 0.0635 ± 0.0015 | 0.0455 ± 0.0024 |
| DFITAT | 0.0436 ± 0.0017 | 0.0559 ± 0.004 | 0.0439 ± 0.00085 |
| KNIVAT | 0.092 ± 0.0023 | 0.52 ± 0.048 | 1.42 ± 0.2 |
| DNATAT | 0.0419 ± 0.0058 | 0.0459 ± 0.0022 | 0.059 ± 0.0073 |
| DNATAR | 0.0439 ± 0.0034 | 0.0477 ± 0.0023 | 0.0627 ± 0.0048 |
| KNAKAR | 0.0687 ± 0.0037 | 0.394 ± 0.045 | 0.754 ± 0.11 |
| KNAKAT | 0.0671 ± 0.0058 | 0.353 ± 0.02 | 0.795 ± 0.18 |
| DIATHT | 0.0414 ± 0.0019 | 0.103 ± 0.0068 | 0.0451 ± 0.0014 |
| DIATHR | 0.0464 ± 0.003 | 0.0989 ± 0.0066 | 0.0456 ± 0.0036 |
| KNITAR | 0.0701 ± 0.0068 | 0.379 ± 0.032 | 1.07 ± 0.19 |
| KNITAT | 0.0655 ± 0.0027 | 0.358 ± 0.021 | 0.972 ± 0.077 |
| KIATET | 0.0659 ± 0.0015 | 1.15 ± 0.065 | 0.0663 ± 0.0026 |
| KIATER | 0.06373 ± 0.00019 | 1.25 ± 0.078 | 0.0603 ± 0.0035 |

— the supplement of paper PMC12783771
